# Measured values from patent publication US20250154494A1, “Microfluidic Co-Encapsulation Device and System and Methods for Identifying T-Cell Receptor Ligands” (JANSSEN BIOTECH, INC., priority 2021, published 2025).
# T1: CD19 on BOLETH cells (UniProt P15391 20-556, limits assumed)
# T1 construct: whole, on cells; also called B cell-specific transmembrane protein CD19
# T1 sequence (looked up): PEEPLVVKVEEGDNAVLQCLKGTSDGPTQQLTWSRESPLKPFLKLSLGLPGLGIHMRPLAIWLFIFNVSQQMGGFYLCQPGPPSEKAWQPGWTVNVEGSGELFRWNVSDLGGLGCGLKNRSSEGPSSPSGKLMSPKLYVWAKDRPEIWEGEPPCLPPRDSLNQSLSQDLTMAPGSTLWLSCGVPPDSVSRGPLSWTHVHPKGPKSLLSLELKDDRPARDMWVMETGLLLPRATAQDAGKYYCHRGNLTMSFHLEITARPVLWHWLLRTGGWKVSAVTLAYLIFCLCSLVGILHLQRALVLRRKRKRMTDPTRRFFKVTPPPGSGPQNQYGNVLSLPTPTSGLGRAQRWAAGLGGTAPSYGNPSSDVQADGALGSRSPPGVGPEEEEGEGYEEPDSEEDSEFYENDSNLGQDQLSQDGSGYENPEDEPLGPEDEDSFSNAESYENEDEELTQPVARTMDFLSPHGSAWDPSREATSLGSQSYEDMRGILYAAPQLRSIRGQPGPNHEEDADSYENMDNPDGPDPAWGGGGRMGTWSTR
# How the values were obtained:
# Jurkat cells = experiment: Droplet co-culture of B and T cells, CD69 surface expression by flow cytometry; format: cell-based
# Procedure: One day prior to encapsulation, BOLETH cells were cultured in the presence of cognate or negative control peptides at a final concentration of 1 μM. Cells were collected the next day, centrifuged at 300 g for 5 min, then resuspended in B-cell medium at a final concentration of 1.4×10^7 cells/ml. These were further supplemented with same peptide and with or without EDTA. TCR-expressing Jurkat cells were centrifuged at 300 g and resuspended in B-cell medium at a concentration of 4×10^7 cells/ml. These were then further supplemented with respective concentrations of calcium. BOLETH, Jurkat, and detergent-containing fractions were connected to the microfluidic chip as described. Pressures were applied using an OB1 MK3+ and the droplet emulsion was collected into a 1.5 ml reaction tube containing oil.
# Droplets were incubated at 37° C. in a 5% CO2 humidified incubator. Following overnight incubation, droplet emulsions were disrupted by adding two volumes of Pico-Break 1 (SPHERE FLUIDICS). Tubes were quickly inverted several times and centrifuged for 15 s at 300 rpm to facilitate separation of the cell-containing fraction. […] Tubes were centrifuged for 5 min at 300 g and cell pellets were subsequently resuspended in 100 μl of FACS buffer and were analyzed via flow cytometry. […]
# Jurkat T cells = experiment: Bulk plate co-culture of TCR-expressing Jurkat T cells with B cells presenting cognate peptide, CD69 surface expression; format: cell-based; conditions: Ca^2+ in equimolar concentration to EDTA in the medium
# [1] = system: Jurkat and SKW3 reporter cells; experiment: Co-culture of TT2-expressing P10-NBV reporter Jurkat and SKW3 cells with cognate minigene-transduced B cells overexpressing Flag-tagged surface receptors; format: cell-based; conditions: overexpression on minigene-transduced B cells
# Excerpt: For the purpose of testing the different Flag-tagged surface receptors, InFusion-based cloning (TAKARA) was used to replace the mTagBFP2 reporter with the human codon optimized coding sequence of each candidate surface receptor, N-terminally or C-terminally tagged with a flexible 6× Flag to face the extracellular space. Specifically, the coding region of CD40, CD58, CD80, CD83, CD86, OX40L and 4-1BBL were cloned and tested.
# Co-culture experiments were done using round bottom 96 well plates. P10-NBV Jurkat and SKW3 reporter cells and B cells are seeded 1 to 1 ratio into each well. Next day the cells are spun down and stained for Flow cytometry.
# BOLETH cells [2] = experiment: Labeling of BOLETH cells with scFv-containing supernatant of transfected HEK293 cells, flow cytometry; format: cell-based; conditions: for signal strength in tandem (T2A) scFv constructs relative to single scFv constructs: αCD19-HA and αCD20-V5 in one expression construct
# Excerpt: Current generation T cell reporter systems consists of a cis-regulatory element comprising multiple copies of a synthetic promoter sequence (‘NBV’). […] The scFv is derived from a monoclonal αCD19-antibody (clone B43) binding to the B cell-specific transmembrane protein CD19, which is commonly used in monoclonal antibody-mediated immunotherapy (Uckun et al., 1988, Blood, 71(1):13-29). It is tagged with six HA epitope tags at its C-terminus, which facilitates its detection by flow cytometry. To optimize the current reporter and B cell labeling strategy, the potential of additional scFvs was tested. In particular, an αCD20-scFv derived from a human monoclonal antibody was evaluated that recognizes an epitope encompassing the membrane-proximal small-loop on the CD20 molecule, known as ofatumumab (clone 2F2) (Teeling et al., 2004, Blood, 104(6):1793-800). In order to test its functionality, scFv constructs were assembled in both the VH-VL and VL-VH configuration. The heavy and light chain domains were separated by a flexible polypeptide linker (G4S)3. To confirm that ofatumumab, as an scFv tagged with four copies of the V5 label, a small epitope-tag found on P and V proteins of the paramyxovirus, can efficiently label BOLETH cells and be detected by flow cytometry, the coding region was inserted into a CMV expression plasmid. HEK293 cells were transfected with the construct using TurboFect. As a negative control, HEK293 cells were transfected with a sfGFP-containing construct. Medium was exchanged 24 hours post-transfection. The scFv-containing supernatant (SN) was collected 72 hours post-transfection and was used to label BOLETH cells. Using fluorescent dye-conjugated antibodies recognizing the tagged scFvs, the amount of B cell bound scFv was measured by flow cytometry (FIG. 8A).
# For optimizing scFv reporter constructs, constructs containing combinations of B43 and 2F2 tagged with either HA or V5 were cloned in pTwist CMV WPRE Neo BetaGlobin. For testing, HEK cells were transiently transfected with the plasmids using TurboFect (Fermentas). […]
# CD19 on BOLETH cells [3] = target: T1, CD19 on BOLETH cells; experiment: flow cytometry; scFv secreted by Jurkat TT2 reporter cells in co-culture with BOLETH cells, 0.1 nM-10 µM cognate peptide
# BOLETH cells [4] = experiment: Co-culture of Jurkat TT2 scFv reporter cells with BOLETH cells in presence of cognate peptide, flow cytometry; format: cell-based; conditions: 0.1 nM-10 μM cognate peptide; versus V5-tagged αCD20-scFv
# CD19 on BOLETH cells [5] = target: T1, CD19 on BOLETH cells; experiment: flow cytometry; BOLETH cells stained with supernatant of HEK cells transfected with tandem (T2A) constructs, anti-HA antibody
molecule,measurement,setting,value
[Ca+2] [Ca^2+],T cell activation measured by CD69 surface expression in droplets,"Jurkat cells; 8 mM Ca^2+ in T cell suspension, 2 mM EDTA in B cell suspension",rescues Ca^2+ dependent T cell activation
same,T cell activation measured by surface expression of CD69,Jurkat T cells,fully restores T cell activation
O=C(O)CN(CCN(CC(=O)O)CC(=O)O)CC(=O)O [EDTA],T-cell activation in presence of EDTA (chelation of calcium from the media),Jurkat cells; EDTA without added calcium,T-cell activation is inhibited
4-1BBL: Flag-tagged surface receptor overexpressed on minigene-transduced B cells; SEQ ID NO:85,minigene-based T cell activation,[1],potentiates minigene-based T cell activation
"OX40L: Flag-tagged surface receptor overexpressed on minigene-transduced B cells; SEQ ID NO:84 (protein, Flag tag) ERVQPLEENVGNAARPRFERNKLLLVASVIQGLGLLLCFTYICLHFSALQVSHRYPRIQSIKVQFTEYKKEKGFILTSQKEDEIMKVQNNSVIINCDGFYLISLKGYFSQEVNISLHYQKDEEPLFQLKKVRSVNSLMVASLTYKDKVYLNVTTDNTSLDDFHVNGGELILIHQNPGEFCVLGSGAGGSGSGAGGSGDYKDDDDKGAGSGDYKDDDDKGAGSDYKDDDDKGGAGSDYKDDDDKGSGDYKDDDDKGAGSGDYKDDDDKGSGAGGSS",minigene-based T cell activation,[1],potentiates minigene-based T cell activation
"αCD19-HA: secreted scFv derived from monoclonal αCD19 antibody clone B43, six HA epitope tags at C-terminus; SEQ ID NO:39 (protein, 6x HA tag) scFv: EVQLVQSGAEVKKPGSSVKVSCKASGYAFSSYWMNWVRQAPGQGLEWMGQIWPGDSDTNYAQKFQGRVTITADESTSTAYMELSSLRSEDTAVYYCARRETTTVGRYYYAMDYWGQGTTVTVSSGGGGSGGGGSGGGGSDIQLTQSPSFLSASVGDRVTITCKASQSVDYSGDSYLNWYQQKPGKAPKLLIYDASNLVSGVPSRFSGSGSGTEFTLTISSLQPEDFATYYCQQSTENPWTFGGGTKLEIK","HA MFI, HA-tagged αCD19 scFv compared to HA-tagged αCD20 scFv",BOLETH cells [2]; HEK supernatant staining of B cells,higher MFIs
same,signal strength in tandem (T2A) scFv constructs relative to single scFv constructs,BOLETH cells [2],remains unchanged
same,signal strength in tandem (T2A) scFv constructs relative to single scFv constructs,BOLETH cells [2]; listed as αCD19 scFv,retains similar binding capacity
"αCD19-scFv (clone B43), four-times V5-tagged (scFv, also called αCD19-scFv V5-tagged) scFv: EVQLVQSGAEVKKPGSSVKVSCKASGYAFSSYWMNWVRQAPGQGLEWMGQIWPGDSDTNYAQKFQGRVTITADESTSTAYMELSSLRSEDTAVYYCARRETTTVGRYYYAMDYWGQGTTVTVSSGGGGSGGGGSGGGGSDIQLTQSPSFLSASVGDRVTITCKASQSVDYSGDSYLNWYQQKPGKAPKLLIYDASNLVSGVPSRFSGSGSGTEFTLTISSLQPEDFATYYCQQSTENPWTFGGGTKLEIKGKPIPNPLLGLDSTGAGSGGKPIPNPLLGLDSTGAGSGGKPIPNPLLGLDSTGGAGSGGKPIPNPLLGLDSTGSGAGGSSL",fold reduction in MFI compared to V5-tagged αCD20-scFv (VLVH),CD19 on BOLETH cells [3],~5 fold
αCD19-scFv V5-tagged: αCD19 scFv (clone B43) with four-times V5 tag (protein) scFv: EVQLVQSGAEVKKPGSSVKVSCKASGYAFSSYWMNWVRQAPGQGLEWMGQIWPGDSDTNYAQKFQGRVTITADESTSTAYMELSSLRSEDTAVYYCARRETTTVGRYYYAMDYWGQGTTVTVSSGGGGSGGGGSGGGGSDIQLTQSPSFLSASVGDRVTITCKASQSVDYSGDSYLNWYQQKPGKAPKLLIYDASNLVSGVPSRFSGSGSGTEFTLTISSLQPEDFATYYCQQSTENPWTFGGGTKLEIKGKPIPNPLLGLDSTGAGSGGKPIPNPLLGLDSTGAGSGGKPIPNPLLGLDSTGGAGSGGKPIPNPLLGLDSTGSGAGGSSL,reduction in MFI,BOLETH cells [4],about 5 fold
"αCD19-scFv (clone B43), VH-VL, tagged with six HA epitope tags at its C-terminus (scFv, also called αCD19-HA; B43-HA) scFv: EVQLVQSGAEVKKPGSSVKVSCKASGYAFSSYWMNWVRQAPGQGLEWMGQIWPGDSDTNYAQKFQGRVTITADESTSTAYMELSSLRSEDTAVYYCARRETTTVGRYYYAMDYWGQGTTVTVSSGGGGSGGGGSGGGGSDIQLTQSPSFLSASVGDRVTITCKASQSVDYSGDSYLNWYQQKPGKAPKLLIYDASNLVSGVPSRFSGSGSGTEFTLTISSLQPEDFATYYCQQSTENPWTFGGGTKLEIKGAGSYPYDVPDYAGAGSYPYDVPDYAGGSYPYDVPDYAGGAGSYPYDVPDYAGAGSYPYDVPDYAGAGSYPYDVPDYAG",binding result,CD19 on BOLETH cells [5],binds
